The text below walks through data of paper PMC11257509 (bioRxiv, 2024).

This data set deals with the molecule itself. In words: SEC. In general terms: Size exclusion chromatography separates by hydrodynamic size, large species first.

B1: 10His-pG-Tn5(E54K, L372P) (enzyme, UniProt Q46731 1-476, looked up)
chain: MITSALHRAADWAKSVFSSAALGDPRRTARLVNVAAQLAKYSGKSITISSEGSKAMQEGAYRFIRNPNVSAEAIRKAGAMQTVKLAQEFPELLAIEDTTSLSYRHQVAEELGKLGSIQDKSRGWWVHSVLLLEATTFRTVGLLHQEWWMRPDDPADADEKESGKWLAAAATSRLRMGSMMSNVIAVCDREADIHAYLQDKLAHNERFVVRSKHPRKDVESGLYLYDHLKNQPELGGYQISIPQKGVVDKRGKRKNRPARKASLSLRSGRITLKQGNITLNAVLAEEINPPKGETPLKWLLLTSEPVESLAQALRVIDIYTHRWRIEEFHKAWKTGAGAERQRMEEPDNLERMVSILSFVAVRLLQLRESFTPPQALRAQGLLKEAEHVESQSAETVLTPDECQLLGYLDKGKRKRKEKAGSLQWAYMAIARLGGFMDSKRTGIASWGALWEGWEALQSKLDGFLAAKDLMAQGIKI
Regarding B1, the binding result was “binds”.
